Assays:
[1] = standard enzyme test for racemase (AAR) activity, HPLC detection; type: biochemical, Amycolatopsis orientalis subspecies lurida
From the text: The AAR activity was followed up in a coupled enzymatic assay (Diagram 1), in that the formation of a deacetylated amino acid from an N-acetyl-D-amino acid, methionine here, was detected using the HPLC system I. The L-specific […] from pig kidneys or Aspergillus oryzae served as the auxiliary enzymes. [drawing 1]
Further characterization of the AAR took place using the HPLC system II. Using this system, it was possible to study the activity of the AAR directly. In this way, it was possible to do without the auxiliary enzyme, the acylase, so that it was possible to avoid disruptive interference activity.
Crude extracts of the superexpression clone, […]. purified enzyme fractions, were used in an enzyme test, in that it was possible to detect the formation of L-methionine from N-acetyl-D-methionine (see Diagram 1), via HPLC:
The standard enzyme test (modified according to Tokuyama et al., Appl. Microbiol. Biotechnol. (1994), 40, 835-840; ibid., Appl. Microbiol. Biotechnol. (1995a), 42, 853-859), was composed as follows:
Solvent: Tris/HCl, pH 7.5, 50 mM
N-acetyl-D-methionine 25 mM
Acylase I (ASch or AAsp) 1 U
Protein 2-150 μg purified protein or total protein
In this connection, acylase I and Co^2+ are present in excess, so that the AAR reaction is the step that determines the speed. Incubation took place for 10-40 min at 30° C. The reaction was then stopped by boiling for 3 min. Analysis of the reaction products took place using HPLC (System I).
Unless mentioned otherwise, acylase I from pig kidneys (ASch) was used in the enzyme test, and Co^2+, was used as the ion (CoCl2×6H2O). Alternatively, however, acylase I from Aspergillus oryzae (AAsp) was also used.
In assays that were analyzed using the HPLC system II, the acylase could be left out, since it is possible to separate and analyze N-acetyl amino acids directly, enantioselectively, with this system.
Other than Co^2+ (CoCl2×6H2O), other bivalent ions, such as MnCl2×4H2O, […], and MgCl2×6H2O were used in various concentrations (0.1-10 mM).
Substrate inhibition was tested in that the activity of the AAR was mixed with 25 to 400 mM N-acetyl-D-methionine as the substrate.

[2] = as above; type: biochemical, Amycolatopsis orientalis subspecies lurida; conditions: N-unprotected amino acids as substrate

B1: AAR from A. orientalis subspecies lurida: N-acetyl amino acid racemase (SEQ ID NO: 2) from Amycolatopsis orientalis subspecies lurida, natural or recombinant enzyme (protein)
chain: VKLSGVELRRVRMPLVAPFRTSFGTQSERELLLVRAVTPAGEGWGECVAMEAPLYSSEYNDAAEHVLRNHLIPALLAAEDVTAHKVTPLLAKFKGHRMAKGALEMAVLDAELRAHDRSFAAELGSTRDSVACGVSVGIMDSIPHLLDVVGGYLDEGYVRIKLKIEPGWDVEPVRQVRERFGDDVLLQVDANTAYTLGDAPLLSRLDPFDLLLIEQPLEEEDVLGHAELAKRIRTPICLDESIVSAKAAADAIKLGACQIVNIKPGRVGGYLEARRVHDVCAAHGIAVWCGGMIETGLGRAANVALASLPGFTLPGDTSASGRFYRTDITEPFVLDAGHLPVPTGPGLGVTPIPDLLDEVTTEKAWIGS
[1]
  optimum pH: 8
[1]; 1 mM CoCl2×6H2O in the assay
  increase in the activity as compared with the activity without metal ion: 1250%
[1]; 2 mM CoCl2×6H2O in the assay
  specific AAR activity after purification: 30.6 U/mg
  specific activity higher than the one found for racemase by Tokuyama and Hatano: approximately 30.8%
[1]; 10 mM CoCl2×6H2O in the assay
  activity: 37.5 U/mg
[1]; MgCl2×6H2O at 10 mM, standard enzyme assay
  activity with Mg in comparison with cobalt substitution: about 40%
[1]; MnCl2×4H2O at 10 mM, standard enzyme assay
  activity with Mn in comparison with cobalt substitution: about 40%
[1]; N-acetyl-D-methionine as substrate, 25 to 400 mM tested
  substrate concentration at which substrate inhibition occurs: greater than 200 mM
[1]; crude extracts of E. coli BL21 (DE3) with pAAR3-21I
  AAR activity in crude extracts of the expression clone: 0.6-1.2 U/mg total protein
[1]; same CoCl2×6H2O concentration in the assay
  more active than the racemase from A. sp. TS-1-60: 152%
[2]
  conversion of amino acids not protected with N-acetyl: does not convert
[2]; listed as AAR
  conversion of amino acids not protected with N-acetyl: not converted
